Sequences and labels used below:
B1: P11, C-terminal peptide of Salp15 (amino acids 95-114) (peptide)
peptide: GPNGQTCAEKNKCVGHIPGC
notes: Chemically synthesized (GenScript); also called P11k
B2: P8, overlapping synthetic peptide of Salp15 (amino acids 71-90) (peptide)
peptide: NCTFLCKHGNDVNVTLNLPE
notes: Chemically synthesized (GenScript)
B3: P2, overlapping synthetic peptide of Salp15 (amino acids 11-30) (peptide)
peptide: STADKDTKKNNVQLRFPNYI
notes: Chemically synthesized (GenScript); coated on the plate
B4: P6, overlapping synthetic peptide of Salp15 (amino acids 51-70) (peptide)
peptide: HNSLSSRSSDVINDKYVDFK
notes: as for B3
B5: P10, overlapping synthetic peptide of Salp15 (amino acids 91-110) (peptide)
peptide: DTPCGPNGQTCAEKNKCVGH
notes: as for B3
B6: P3, overlapping synthetic peptide of Salp15 (amino acids 21-40) (peptide)
peptide: NVQLRFPNYISNHQKLALKL
notes: as for B3
B7: P7, overlapping synthetic peptide of Salp15 (amino acids 61-80) (peptide)
peptide: VINDKYVDFKNCTFLCKHGN
notes: as for B3
B8: P5, overlapping synthetic peptide of Salp15 (amino acids 41-60) (peptide)
peptide: LKICKDSKSSHNSLSSRSSD
notes: as for B3
B9: P1, overlapping synthetic peptide of Salp15 (amino acids 1-20) (peptide)
peptide: NESGPTKADASTADKDTKKN
notes: as for B3
B10: P9, overlapping synthetic peptide of Salp15 (amino acids 81-100) (peptide)
peptide: DVNVTLNLPEDTPCGPNGQT
notes: as for B3
B11: P4, overlapping synthetic peptide of Salp15 (amino acids 31-50) (peptide)
peptide: SNHQKLALKLLKICKDSKSS
notes: as for B3

In the first assay the target is T1, sCD4-HRP (Research Diagnostics Inc.) (UniProt P01730 26-396, limits assumed).
T1 construct: extracellular domain
Briefly: microtiter assay, increasing concentrations of plate-bound P11, sCD4-HRP, non-linear curve fit.
The Kd is the free concentration of one partner at which half of the binding sites on the other are occupied at equilibrium, for simple one-to-one binding. A high value points to a looser complex. In turn, B1 yielded a Kd of 50 nM.

A further assay concerns the target T1, sCD4-HRP (Research Diagnostics Inc.). Briefly: microtiter competition; free P11 added to sCD4-HRP on plate-bound P11.
Method: Purified sCD4 was coated overnight at 4° C. at the indicated concentrations in 0.1M sodium carbonate buffer (pH 9.5) in 96 well plates. Equimolar amounts of lysozyme were used as a non-specific control. […] The reaction was stopped by adding TMB stop solution (KPL). […] The wells were washed and blocked prior to incubation with sCD4-HRP (Research Diagnostics Inc., Flanders, N.J., U.S.A.).
As a reminder, the IC50 is the concentration at which inhibition is half-maximal. A high value points to lower potency. B1 gave an IC50 of 1250 nM. In other words, the single-digit micromolar range.

Another assay shares this target. In words: microtiter assay, plate-bound peptide, sCD4-HRP.
For B2, the binding result is reported as “no binding (tested: 0.5 µg peptide coated)”. Same read-out and setting: the entry for B3 is “no binding (tested: 0.5 µg peptide coated)”. Same read-out and setting: the entry for B4 is “no binding (tested: 0.5 µg peptide coated)”; for B5 it is “no binding (tested: 0.5 µg peptide coated)”; for B6 it is “no binding (tested: 0.5 µg peptide coated)”. Still for that read-out and setting: the entry for B7 is “no binding (tested: 0.5 µg peptide coated)”. With B8, the binding result was “no binding (tested: 0.5 µg peptide coated)”. On the same count and under the same terms, the entry for B9 is “no binding (tested: 0.5 µg peptide coated)”; for B10 it is “no binding (tested: 0.5 µg peptide coated)”; for B11 it is “no binding (tested: 0.5 µg peptide coated)”.

These data come from patent US20080305997A1 (UNIVERSITY OF NORTH CAROLINA AT CHARLOTTE, published 2008).
